Data taken from US8409833B2 (Hokko Chemical Industry Co., Ltd., priority 2003, dated 2013).

B1: ydgJ gene: recombinant scyllo-inositol dehydrogenase, ydgJ gene product of Escherichia coli K12 ATCC10798, SEQ ID NO: 2 (protein, listed as Escherichia coli)
chain: MSDNIRVGLIGYGYASKTFHAPLIAGTPGQELAVISSSDETKVKADWPTVTVVSEPKHLFNDPNIDLIVIPTPNDTHFPLAKAALEAGKHVVVDKPFTVTLSQARELDALAKSLGRVLSVFHNRRWDSDFLTLKGLLAEGVLGEVAYFESHFDRFRPQVRDRWREQGGPGSGIWYDLAPHLLDQAITLFGLPVSMTVDLAQLRPGAQSTDYFHAILSYPQRRVILHGTMLAAAESARYIVHGSRGSYVKYGLDPQEERLKNGERLPQEDWGYDMRDGVLTRVEGEERVEETLLTVPGNYPAYYAAIRDALNGDGENPVPASQAIQVMELIELGIESAKHRATLCLA
B2: C58 Atu4375 gene: recombinant scyllo-inositol dehydrogenase, Atu4375 gene product of Agrobacterium tumefaciens C58 ATCC33970, SEQ ID NO: 4 (protein)
chain: MSSATKKFDSRRIRLGMVGGGQGAFIGAVHRIAARLDDRYELVAGALSSDPARAAASATLLGIAPERSYASFEDMAATEAGREDGIEAVAIVTPNHLHFAPSKAFLEAGIHVICDKPVTATLEEAKALAGIVRASDSLFVLTHNYTGYAMLRQMREMIAEGAIGKLRHVQAEYAQDWLTEAVEKTGAKGAEWRTDPSRSGAGGAIGDIGTHAFNAAAFVTGEIPSSLYADLTSFVPGRQLDDSANILLRYDSGAKGMLWASQIAVGNENALSLRVYGDKGGLEWHHRVPDELWFTPYGEPKRLITRNGAGAGAAANRVSRVPSGHPEGYLEGFATIYREAADAIIAKREGETAAGEVIYPGMEDGLAGLAFIDAAVRSSQTSTWVGIDI
modifications: Agrobacterium tumefacience
B3: C58 Atu3234 gene: recombinant scyllo-inositol dehydrogenase, Atu3234 gene product of Agrobacterium tumefaciens C58 ATCC33970, SEQ ID NO: 6 (protein)
chain: MAIEGKTTDVANKRIRLGMVGGGSGAFIGGVHRMAARLDNRFDLVAGALSSTPEKSLASGRELGLDSERCYGSFEEMAEKEALREDGIEAVAIVTPNHVHYPAAKAFLERGIHVICDKPLTSNLEDAKKLKDVADKADALFILTHNYTGYPMVRHARELVEAGALGNIRLVQMEYPQDWLTEAVEQTGAKQAVWRTDPAQSGVGGSTGDIGTHAYNLGCFISGLEADELAADVHTFVEGRRLDDNAHVMMRFKPKGGKQPARGMLWCSQVAVGHENGLKIRLYGDKAGLEWTQADPNYLWFTKLGEPKQLITRGGAGAGAAAARVTRIPSGHPEGYLEAFATIYTEAAHAIEARRTGSALDKAVIYPTVDDGVKGVAFVTACIESGKKNGGWVKL
modifications: Agrobacterium tumefacience
B4: BG14057 gene: recombinant scyllo-inositol dehydrogenase, BG14057 gene product of Bacillus subtilis 168 ATCC23857, SEQ ID NO: 8 (protein, listed as Bacillus subtilis)
chain: MITLLKGRRKVDTIKVGILGYGLSGSVFHGPLLDVLDEYQISKIMTSRTEEVKRDFPDAEVVHELEEITNDPAIELVIVTTPSGLHYEHTMACIQAGKHVVMEKPMTATAEEGETLKRAADEKGVLLSVYHNRRWDNDFLTIKKLISEGSLEDINTYQVSYNRYRPEVQARWREKEGTATGTLYDLGSHIIDQTLHLFGMPKAVTANVMAQRENAETVDYFHLTLDYGKLQAILYGGSIVPANGPRYQIHGKDSSFIKYGIDGQEDALRAGRKPEDDSWGADVPEFYGKLTTIRGSDKKTETIPSVNGSYLTYYRKIAESIREGAALPVTAEEGINVIRIIEAAMESSKEKRTIMLEH

What was measured:
Assay type in all cases: biochemical
[1] = Optimum pH of scyllo-inositol dehydrogenase; settings: 200 mM phosphate buffer (pH 5.0 to 9.0); 90% or more of the maximum activity
Method: The optimum pH can be confirmed by: mixing 5 μl of a reaction solution (200 mM […] of pH 5.0 to 9.0 containing 2% of NADPH, and 1% of scyllo-inosose) and 5 μl of an enzyme solution; allowing the mixture to react at 36° C. for 30 minutes; adding 500 μl of water immediately after the completion of the reaction; determining the absorbance at 340 nm; and determining a decrease in the absorbance at 340 nm with respect to a blank value of a test solution containing water instead of the enzyme solution. The term “optimum pH” means a pH at which the enzyme has 90% or more of the maximum activity. The enzyme of the present invention can be divided depending on, for example, a range of the optimum pH into groups each having: an optimum pH in an acidic region (optimum pH is pH of 5.5 to 6.5); an optimum pH in a neutral region (optimum pH is pH of 6.5 to 7.5 or 6.5 to 8.5); and an optimum pH in an alkaline region (optimum pH is pH of 7.0 to 8.5 or 7.5 to 9.0).
The optimum pH of the enzymes of the present invention was determined by: mixing 5 μl of a reaction solution (200 mM phosphate buffer (pH 5.0 to 9.0), 2% of NADPH, and 1% of scyllo-inosose) with 5 μl of an enzyme solution; and allowing the mixture to react at 36° C. for 30 min. After the reaction, 500 μl of water was immediately added thereto, and the absorbance at 340 nm was measured. From the blank value of a test solution prepared by using water instead of the enzyme solution, the decrease in the absorbance at 340 nm was measured. The enzyme solution was diluted as required.

[2] = Effects of heavy metal on scyllo-inositol dehydrogenase; settings: 2 mM heavy metal in reaction solution, no addition group = 100%
Method: Effects by the heavy metals can be confirmed by: mixing 5 μl of a reaction solution (200 mM Tris buffer of pH 8.0 containing 2% of NADPH, 1% of scyllo-inosose, and 2 mM metal salt) and 5 μl of an enzyme solution; allowing the mixture to react at 36° C. for 30 minutes; adding 500 μl of water immediately after the completion of the reaction; determining the absorbance at 340 nm; and determining a decrease in the absorbance at 340 nm with respect to a blank value of a test solution containing water instead of the enzyme solution. The term “activated” means the case where the enzymatic activity of a fraction added with 1 mM of a heavy metal is 105% or more, preferably 120% or more, with respect to the enzymatic activity of a fraction added with no heavy metal as 100%. On the other hand, the term “inhibited” means the case where the enzymatic activity of the fraction added with 1 mM of a heavy metal is 95% or less, preferably 70% or less, with respect to the enzymatic activity of the fraction added with no heavy metal as 100%.
The effects of heavy metal on the enzymes of the present invention were determined by: mixing 5 μl of a reaction solution (200 mM Tris buffer (pH 8.0), 2% of NADPH, 1% of scyllo-inosose, and 2 mM of a heavy metal) with 5 μl of an enzyme solution; and allowing the mixture to react at 36° C. for 30 min. After the reaction, 500 μl of water was immediately added thereto, and the absorbance at 340 nm was measured. From the blank value of a test solution prepared by using water instead of the enzyme solution, the decrease in the absorbance at 340 nm was measured. The enzyme solution was diluted as required. CaCl2, CoCl2, ZnSO4, MgSO4, SnCl2, NiCl2, and MnSO4 were used as metallic salts. The activity of the no addition group was defined as 100%, and the relative activities were compared. […] Most of the enzymes were inhibited in the presence of Zn^2+ ion, in contrast, the enzyme derived from Bacillus subtilis 168 was activated in the presence of Zn^2+ ion.

[3] = Enzyme reaction product of scyllo-inosose reduction measured by HPLC; settings: for share of scyllo-inositol in the product of scyllo-inosose reduction: 10 mg scyllo-inosose, 40 mg NADPH, 10 U enzyme, 36° C., 4 hours, myo-inositol not detected; for Reduction reaction product: SIS: scyllo-inosose, SI: scyllo-inositol
Method: Meanwhile, the enzyme reaction product was measured as follows: 10 mg of scyllo-inosose, 40 mg of NADPH, and 10 U of the enzyme were allowed to react in 1.0 ml of 100 mM Tris buffer (pH 8.0) at 36° C. for 4 hours, and a heat treatment was performed at 80° C. for 10 min, followed by cooling. Then, 100 μl of a strong base cation exchange resin, 100 μl of a strong acid anion exchange resin, and 10 mg of activated carbon were added, and the mixture was stirred and centrifuged. Then, the supernatant was diluted 2-fold, and measurement was performed by HPLC (Shodex Asahipak NH2P-50 4E Φ 4.6×250 mm: Shodex) using an RI detector under the condition of a column temperature of 40° C. and a mobile phase flow rate of 1.5 ml (80% acetonitrile). […] Meanwhile, the sequence of the ydgJ gene is shown in SEQ ID NO: 1, and the amino acid sequence corresponding thereto is shown in SEQ ID NO: 2.
Meanwhile, enzyme reaction product was measured as follows: 10 mg of scyllo-inosose, 40 mg of NADPH, and 10 U of the enzyme were allowed to react in 1.0 ml of 100 mM Tris buffer (pH 8.0) at 36° C. for 4 hours, and a heat treatment was performed at 80° C. for 10 min, followed by cooling. Then, 100 μl of a strong base cation exchange resin, 100 μl of a strong acid anion exchange resin, and 10 mg of activated carbon were added, and the mixture was stirred and centrifuged. Then, the supernatant was diluted 2-fold, and measurement was performed by HPLC (Shodex Asahipak NH2P-50 4E Φ 4.6×250 mm: Shodex) using an RI detector under conditions of a column temperature of 40° C. and a mobile phase flow rate of 1.5 ml (80% acetonitrile).

[4] = Km values of scyllo-inositol dehydrogenase for scyllo-inosose (reciprocal plot); settings: NADPH, pH 8.0, 36° C.
Method: The determination is carried out such that the Km value is calculated after reciprocal plot according to the general method.
After the reaction, […] of water was immediately added thereto, and the absorbance at 340 nm was measured. From the blank value of a test solution prepared by using water instead of the enzyme solution, the decrease in the absorbance at 340 nm was measured. The enzyme solution was diluted as required. The Km values were calculated by the reciprocal plot.

[5] = Substrate specificity of scyllo-inositol dehydrogenase (relative activity of oxidation, absorbance at 545 nm); settings: relative to reactivity to scyllo-inositol, NADP^+, pH 8.0, 25° C.
Method: Examples of an inositol isomer include scyllo-inositol (SI), myo-inositol (MI), D-chiro-inositol (DCI), L-chiro-inositol (LCI), epi-inositol (EI), muco-inositol (MuI), allo-inositol (AI), and neo-inositol (NI).
The inositol isomers include scyllo-inositol (SI), myo-inositol (MI), D-chiro-inositol (DCI), L-chiro-inositol (LCI), epi-inositol (EI), muco-inositol (MuI), allo-inositol (AI), and neo-inositol (NI).
The reaction rate was calculated from the absorbance increments at the respective times.

| Molecule | Optimum pH [1] | Heavy metal effects: activation [2] | Heavy metal effects: strong inhibition [2] | share of scyllo-inositol in the product of scyllo-inosose reduction [3] | Reduction reaction product [3] | Km [4] | Substrate specific Relative activity (20 to 70%) [5] | Substrate specific Relative activity (70% or more) [5] | Substrate specific Relative activity (less than 20%) [5] | Heavy metal effects: activation ([2]; listed as enzyme derived from Bacillus subtilis 168) |
| --- | --- | --- | --- | --- | --- | --- | --- | --- | --- | --- |
| B1 | pH 7.5-9.0 | Co | Sn, Zn | 100% | Only SIS → SI | 3.9 mM | LCI, EI, MuI | SI, MI, DCI | AI, NI |  |
| B2 | pH 6.5-8.5 | Co, Mn | Sn, Zn | 100% | Only SIS → SI | 9.2 mM | LCI, MuI | SI, MI, DCI, EI | AI, NI |  |
| B3 | pH 7.0-8.5 | Co, Mn, Ca | Sn, Zn | 100% | Only SIS → SI | 2.6 mM | MuI | SI, MI, DCI, EI, LCI | AI, NI |  |
| B4 | pH 7.0-8.5 | Co, Mn, Zn | Sn | 100% | Only SIS → SI | 3.5 mM | DCI, EI, AI, NI | SI, MI | LCI, MuI | Zn^2+ ion |
